The values that follow come from the nanobody polyreactivity screen of Harvey et al. (2022).

The series in a line: yeast display, Sf9 membrane polyspecificity reagent, FACS + sequencing; frameworks hold sequencing errors. The method in brief:
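Polyreactivity labels are assigned by the sorting gate from which each nanobody was recovered. The gates were low and high (top ~1%), set on anti-HA fluorescence for expression and streptavidin fluorescence for reagent binding. Before sorting, galactose-induced (36–48 hours) yeast display cells were stained for 1 hour at 4 °C with 10% biotinylated, detergent-solubilized Sf9 membrane reagent.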
As for “QDQLVESGGGLVQAGGSLRLSCAASGSTFDSYDMGWYRQAPGKERELVAAISGGGGTYYADSVKGRFTISRDNAKNTVYLQMNSLKPEDTAVYYCAARTNGWPGMGYWGQGTQVTVSS”, the “polyreactivity (PSR sort gate)” value was “high polyreactivity”.
The result for “QDQLVESGGGLVQAGGSLRLSCAASGSTFGVNAMGWYRQAPGKERELVAIITSTTYSDSVKGRFTISRDNAKNTVYLQMNSLKPEDTAVYYSAADSLLVLFDYWGQGTQVTVSS” reads “low polyreactivity”; that for “QDQLVESGGGLVQAGGSLRLSCAASGSTFKVYAMGWYRQAPGKERELVAAISASDCSTYYADSVKGRFTISRDNAKNTVYLQMNILKAEDTAVYYCNAAYPEWYAYDYWGQGTQVTVSS”, “low polyreactivity”.
“QDQLVESGGGLVQAGGSLRLSCAASGSTFNNNALGWYRQAPGKERELVAAISYTGGSTYYADSVKGRFTISRDNAKNSVYLHMNSLKPEDTAVYYCARRQARKFYYWGQGTQVTVSS”: the “polyreactivity (PSR sort gate)” value is listed as “high polyreactivity”.
To “QDQLVESGGGLVQAGGSLRLSCAASGSTFPDYAMGRYRQAPGKERELFAAISSGGSTNYADSVKGRFTISRDNAKNTVYLQMNSLKPEDTAVYYCAADVGAIYDKAVNGYWGQGTQVTVSS” belongs “low polyreactivity”; to “QDQLVESGGGLVQAGGSLRLSCAASGSTFRHNAMGWYRQAPGKERELVATIRTSGGTTYYADSVKGRFTISRDNAKNTVYLHMNSLKPEDTAVYYCAAVSYLFLYQGYPIAYPMYYWGQGTQVTLSS”, “low polyreactivity”; to “QDQLVESGGGLVQAGGSLRLSCAASGSTFRPYAMGWSRQAPGKERELVAAITTGGSTNYADSVKGRFTISRDNAKNTVYLQMNSLKPEDTAVYYCNADYDVLNWGYYDWGYDYWGHGTQVTVSS”, “low polyreactivity”.
The result for “QDQLVESGGGLVQAGGSLRLSCAASGSTFSYNMGWYRQAPGKERELVAAISGSGGSTYADSVKGRFTISRDNAKNTVYLQMNSLKPEDTAVYYCATVRYWVHEYGYWGQGTQVTVSS” reads “high polyreactivity”; that for “QDQLVESGGGLVQAGGSLRLSCAASGSTFVSNAMVWYRQAPGKERELVAAISSSGGRTSYADSVKGRFTISRDNAKNTVYLQMNSLKPEDTAVYYCAARFKSVDYVQYYYWGQGTQVTVSS”, “low polyreactivity”; that for “QDQLVESGGGLVQAGGSLRLSCAASGSTIPISVRGWYRQAPGKERELVAAITYSGGSTYYADSVKGRFTISRDNAKNTVYLQMNSLKPEDTAVYYCAAGVYRWHYLYKYTQRRVEYWGQGTQVTVSS”, “high polyreactivity”.
To “QDQLVESGGGLVQAGGSLRLSCAASGSTLYAYAMGWYRQAPGKERELVAASRTGGSTYYADSLKGRFTISRDNAKNTVYLQMNSLKPEDTAVYYCAALYYHEYDYWGQGTQVTVSS” belongs “low polyreactivity”; to “QDQLVESGGGLVQAGGSLRLSCAASGSTMRWYAMGWYRQAHGKERELVARISWTTGSTYYADSVKGRFTISRDNAKNTVYLQMNSLKPEDTAVYYCAVASGQSFYWGQGTQVTVSS”, “high polyreactivity”.
Consider “QDQLVESGGGLVQAGGSLRLSCAASGTFRRYAMGWYRKAPGKERELVAAISSGGGSTYYADSVKGRFTISRDNAKNTVYLQMNSLKPEDTAVYDCAAANSYTFRYGSWGQGTQVTVSS”, for which the “polyreactivity (PSR sort gate)” value is recorded as “high polyreactivity”.
The result for “QDQLVESGGGLVQAGGSLRLSCAASGTTFQYNAMGWYRQAPGKERELVAAISGSGGSTYYADSVKGRFTISRDNAKNTVYLEMNSLKPEDTAVYYCARVGYRHGYYNYCGQGTQVTVSS” reads “high polyreactivity”.
To “QDQLVESGGGLVQAGGSLRLSCAASGTTFYRYAMGWYRQAPGKERELVAAISSSGGYTYYADSVKGRFTISRDIAKNTVYLQMNSLKPEDTAVYYCNAAYRVRRFDYWGQGTQVTVSS” belongs “low polyreactivity”.
For the sequence “QDQLVESGGGLVQAGGSLRLSCAASGYTFPSYAMGWYRQAPGKEREFVAAIDSSGGSTNYADSVKGRFTISRDNAKNTVYLQMNSLKPEETAVYYCAREYSSGYWVRHLFYYWGQGTKVTVSS”, the “polyreactivity (PSR sort gate)” value is “low polyreactivity”.
With “QDQLVESGGGLVQAGGSLRLSCAASRSIFPLYAMGWYRQATGKEREMVAAISYSGGRTYYADSVKGRFTISRDNAKNTVYLQMNSLKPEDTAVYYCNTRQRVIDDYWGQGTQVSVSS”, the “polyreactivity (PSR sort gate)” value was “high polyreactivity”.
For the sequence “QDQLVESGGGLVQAGGSLRLSCAPSGSTFGDYDMGGYRPAPGKERELVAAISNGGSTYYAASVKGRFTISRDNAKNTVYLQRNSLKPEDTADFYCNADNVEIRSTYEYGRYLYGYWGQGTQVTVSS”, the “polyreactivity (PSR sort gate)” value was “low polyreactivity”.
The result for “QDQLVESGGGLVQAGGSLRLSCAPSGYFDLNALGWYRQAPGKERELVAANTDGGSTNYADSVKGRFTISRDNAKNTFYLQMNSLKPEDTAVYYCAADRGHTILHGGYWGQGTQVTVSS” reads “low polyreactivity”; that for “QDQLVESGGGLVQAGGSLRLSCASSGSTFPWYTMGWSRQAPGKERELVAAIDGSAGDTYYADSVKGRVTISRDNAKNTVYLQMNSLKPEDTAVYYCATRTWRWGYLHYDYWGQGTQVTVSS”, “low polyreactivity”; that for “QDQLVESGGGLVQAGGSLRLSCDASGSIFEQNAMGWYRPAPGKERELVAAISSGSTNYADSVKGRFTISRDNAKNTVYLQMNSLKPEDTAVYYCAKRWRRRFVDVWSLYDYWGQGTQVTVSS”, “low polyreactivity”.
The result for “QDQLVESGGGLVQAGGSLRLSCPASGHTFAKYAMGWYRQAPGKERELVAAISSGGDTYYADSVKGRFTISRDNAKNTVYLQMNSLIPEDTAVYYCAATSICGSWSFWSPGEYRHYDYWGQGTQVTVSS” reads “low polyreactivity”.
To “QDQLVESGGGLVQAGGSLRLSCPASGRTFNYYAMGWYRQAPGKERELVAAISVSTTRTYYADSVKGRFTISRDNAKNTVYLQMNSLKPEDTAVYYCAAYRAGRFGYLGQGTQVTVSS” belongs “high polyreactivity”; to “QDQLVESGGGLVQAGGSLRLSCSASGSTFIRNSKGWYRQATGKERELVAAITTDGSTDYADSVKGRFTISRDNAKNTVYLQMNSLKPEDTAVYYCNAEYRLDALSYDYWGQGTQVTVSS”, “low polyreactivity”.
Consider “QDQLVESGGGLVQAGGSLRLSGDASGSTFSKYVMGWYRQAPGKERELVAAISGGDRTYYADSVKGRFTISRDNAKNTVYLQMNSLKPEDTAVYFCAAEVLKTRWSYDYWGQGTQVTVSS”, for which the “polyreactivity (PSR sort gate)” value is given as “high polyreactivity”.
The result for “QDQLVESGGGLVQAGGSLRLSRAASGLIFYSYAMGWYRQAPGKERELVAAISSGGGRTYYADSVKGRFTISRDNAKNTVDLQMNSLKPEDTAVYYCAAYGSAAQKYPYDRPYRYGYWGQGTQVTVSS” reads “high polyreactivity”; that for “QDQLVESGGGLVQAGGSLRLSSAASGRIFKRYAMGWYIQAPGKERELVAAITYNSGSTYYADSVKGRFTISRDNAKNTVYLQMNSLKPEDTAVFYCAAEKWSDQSPRGDYWGQGTQVTVSS”, “low polyreactivity”; that for “QDQLVESGGGLVQAGGSLRLTCAASGITFYRYAMGWYRQAPGKERELVAAITSGGRTNYADSVKGRFTISRDNAKNTVYLQMNSMKPEDTAVYYCGARLVRESEPLGYWGQGTQVTVSS”, “high polyreactivity”.
The result for “QDQLVESGGGLVQAGGSLRLTCAASGSIFTAYTMGWYRQAPVKERELVAAITERGGSTYYADSVKGRFTISRDNAKNTFYLQMNRMKPEDTAVYYCAASTLKDIYLWFRVDYWGQGTQVTLSS” reads “low polyreactivity”; that for “QDQLVESGGGLVQAGGSLRLTSAASGRIFTIYAMGWYRQPPGKDRELVAAISDRGTRTYYADSVKGRFTISRDIAKNTVYLQMNSLKPEDTAVNYCSTDALYTYGYDYWGQGTQVTVSS”, “low polyreactivity”; that for “QDQLVESGGGLVQAGGSLSLSCAASGRTFYDYAMGWYRQAPGKERELVAAISRSGGRTYYADSVKGRFTISRDNAKNTVYLQMNSLKPEDTAVYYCNAVRYVLGYSYDYNYWGQGTQVTVSS”, “high polyreactivity”.
In the case of “QDQLVESGGGLVQAGGTLRLSCAATGSTFTNYAMGWYRQAPGKERELVAALTSVGSTYYADSVKGRFTISRDNAKNTVYLQTNSLKAEDTAVYYCNVVYRDQYNYWGQGTQVTVSS”, the “polyreactivity (PSR sort gate)” value is “low polyreactivity”.
“QDQLVESGGGLVQAGGTLSLSSAASVIIFYDNAMGWSRQAPGKEREYVAAISRSGTTTYYADSVKGRFTISRDNAKNTVYLQMNSLKPEDTAVYYCAARWVYYHAIFEYWGQGTQVTVSS”: the “polyreactivity (PSR sort gate)” value is listed as “high polyreactivity”.
To “QDQLVESGGGLVQAGVSLRISCAASGYIFGFYARGWYRQAPGIERELVAAISKSGGNTYYADSVKGRFTISRDNANNTVSLQMNSLKPEDTAVYYCAADSYRYKYNYWGQGTQVTGSS” belongs “high polyreactivity”; to “QDQLVESGGGLVQARGSLRLSCAASGSIYSRNALGWYRQAPGKERELVAAITYRGGNTYYADSVKGRFTISRDNANNNLYLQMNSLKPEDTAVYYCAADTYGWLYAFEYWGQGTQVTVSS”, “low polyreactivity”; to “QDQLVESGGGLVQEGGSLRLSCAASGRIFYFNARGWYRQAPGKERELVADISSGGRTNYADSVKGRFTFSRDNAKNSVYVQMNSEKPEDTAVYYCNSEPYTSSGGYRGYDFDYWGQGSQVTVSS”, “low polyreactivity”.
The result for “QDQLVESGGGLVQEGGSLRLSCAASGRTFKHYVMGWYRQAPGKERELVATICGGGGTYYADSVKGRFTISRDNAKNSVYLQMISLKPEDTAVYYCAARYPRGSRTWSFDSNKQRDYWGQGTQVTVSS” reads “low polyreactivity”; that for “QDQLVESGGGLVQGGGSLRLSCAASGRIFSPYAMGWYRQAPGKEREVVAAITSASSTYYADSVKGRFTISRDNAKNTVYLQMNSLKPEDTAVNYCAASYWRYGSAFDYWGHGTQVTVSS”, “high polyreactivity”; that for “QDQLVESGGGLVQSGGSLRLSCAASGSTFYYYAMGWYRQAPGKERELVAAITSSTGRTYYADSVKGRFTISRDNAKYTVYLQMNSLKPEDTAVYYCITRRGSLSGLYVYSIQGYDYWGQGTQVTVSS”, “low polyreactivity”.
Turning to “QDQLVESGGGTVQAGGSLRISCAASGSILRSNAMGWYRQAPAKERELVAAITQSGGSTFYADSVKGRFTITRDNAKNTVYLQMNSLKPEDTAVYYWGQGTQVTVSS”, the “polyreactivity (PSR sort gate)” value was “low polyreactivity”.
To “QDQLVESGGGVVQAGGSLRLSCAASGRISIWYAMGWYRQAPGKERELVARISTSSGRTYYADSVKGRFTISRDNAKNTVYLQMNSLKPEDTAVYYCNAAGYRIYFSTRYDYWGQGTQVTVSS” belongs “high polyreactivity”.
